{"source": "patent EP1275713A1", "target": "human TLR4 (human) (UniProt O00206)", "sequence (O00206 24-839)": "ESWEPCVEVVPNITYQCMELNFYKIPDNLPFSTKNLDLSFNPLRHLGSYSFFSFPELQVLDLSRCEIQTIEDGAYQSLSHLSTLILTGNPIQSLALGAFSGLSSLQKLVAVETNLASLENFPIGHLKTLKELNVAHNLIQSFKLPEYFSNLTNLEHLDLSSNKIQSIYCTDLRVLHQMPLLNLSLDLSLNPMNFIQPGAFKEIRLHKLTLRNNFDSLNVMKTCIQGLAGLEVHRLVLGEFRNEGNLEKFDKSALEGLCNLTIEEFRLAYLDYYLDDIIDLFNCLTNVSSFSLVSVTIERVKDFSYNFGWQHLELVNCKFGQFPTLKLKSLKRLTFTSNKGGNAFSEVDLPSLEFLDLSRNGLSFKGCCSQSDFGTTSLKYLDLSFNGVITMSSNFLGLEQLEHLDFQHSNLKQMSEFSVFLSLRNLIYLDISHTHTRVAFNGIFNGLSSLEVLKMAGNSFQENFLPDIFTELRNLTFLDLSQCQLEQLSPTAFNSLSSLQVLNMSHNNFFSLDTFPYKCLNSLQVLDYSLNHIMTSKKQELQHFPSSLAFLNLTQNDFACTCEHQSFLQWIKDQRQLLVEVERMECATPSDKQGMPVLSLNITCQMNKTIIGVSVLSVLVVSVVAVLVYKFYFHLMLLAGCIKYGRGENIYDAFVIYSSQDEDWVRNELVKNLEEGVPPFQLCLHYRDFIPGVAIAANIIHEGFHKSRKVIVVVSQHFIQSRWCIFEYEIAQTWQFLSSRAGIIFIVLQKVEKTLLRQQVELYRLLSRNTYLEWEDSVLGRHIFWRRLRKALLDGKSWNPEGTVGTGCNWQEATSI", "assay": "BIACORE 3000: TLR4-COS cells (1.7 × 10^5 cells/mL) premixed with 33 µg/mL sCD14(1-307)S286C for 20 minutes, injected over immobilized sCD14(1-356)/LPS"}
{"binder": "sCD14(1-307)S286C (receptor) TTPEPCELDDEDFRCVCNFSEPQPDWSEAFQCVSAVEVEIHAGGLNLEPFLKRVDADADPRQYADTVKALRVRRLTVGAAQVPAQLLVGALRVLAYSRLKELTLEDLKITGTMPPLPLEATGLALSSLRLRNVSWATGRSWLAELQQWLKPGLKVLSIAQAHSPAFSCEQVRAFPALTSLDLSDNPGLGERGLMAALCPHKFPAIQNLALRNTGMETPTGVCAALAAAGVQPHSLDLSHNSLRATVNPSAPRCMWSSALNSLNLSFAGLEQVPKGLPAKLRVLDLCCNRLNRAPQPDELPEVDNLTL", "values": [{"measurement": "suppression of binding", "value": 100, "unit": "%"}]}
